Assay results published in US20220396632A1 (VERSEAU THERAPEUTICS, published 2022).
No end group written: not given here. *: point of attachment. Biotin = O=C1N[C@H]2[C@H](CS[C@H]2CCCCC(=O)*)N1

Target: T1, Biotin PSGL-1(56-70) peptide (human)
T1 peptide: Ac-ETEPPEMLRNSTDTTGK(Biotin)
Assay: ELISA, plate-bound biotin peptide

- binding result: binds
B1: 2E12 (antibody, V domains shown)
VH: QVQLQQSGAELARPGASVKLSCKASGYTFTNYGLNWVKQRTGQGLEWIGEIYPRSGNTYYNEKFKGKATLTADKSSSTAYMQLSSLTSEDSAVYFCATEGAYWGQGTLVTVSA
VL: DIVMTQTPLTLSVTIGQPASISCKSSQSLLHGNGKTYLNWLLQRPGQSPKLLIYLVSKLESGIPDRFSGSGSGTDFTLEISRVEAEDLGIYYCLQSTHFPRTFGGGTKLEIK
notes: Mouse hybridoma mAb; only variable domains given
